Biological target: hen egg lysozyme (hen) (UniProt P00698)
Test: cell-based or functional assay

Chain of hen egg lysozyme (hen) (P00698 19-147): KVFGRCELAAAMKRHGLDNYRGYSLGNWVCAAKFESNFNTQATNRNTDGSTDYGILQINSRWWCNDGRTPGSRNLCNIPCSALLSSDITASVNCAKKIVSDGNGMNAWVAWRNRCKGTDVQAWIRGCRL
Chain of pair of chimeric receptor polypeptides: HyHEL-10 VH fused to mouse erythropoietin receptor (pME-VHER) and HyHEL-10 VL fused to mouse erythropoietin receptor (pME-VLER), expressed on Ba/F3 cells (from (P14753 146-507, change not shown): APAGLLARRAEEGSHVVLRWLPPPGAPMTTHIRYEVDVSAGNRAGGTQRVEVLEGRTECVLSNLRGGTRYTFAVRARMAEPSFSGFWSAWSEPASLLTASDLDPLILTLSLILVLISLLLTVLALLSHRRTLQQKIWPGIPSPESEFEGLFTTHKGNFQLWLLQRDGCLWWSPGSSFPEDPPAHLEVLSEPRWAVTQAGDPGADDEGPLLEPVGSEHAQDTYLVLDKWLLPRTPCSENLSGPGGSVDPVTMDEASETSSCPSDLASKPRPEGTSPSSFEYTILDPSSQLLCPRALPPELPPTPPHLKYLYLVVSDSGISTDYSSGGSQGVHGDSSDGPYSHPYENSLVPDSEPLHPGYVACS
Chain of pair of chimeric receptor polypeptides: HyHEL-10 VH fused to mouse erythropoietin receptor (pME-VHER) and HyHEL-10 VL fused to mouse erythropoietin receptor (pME-VLER), expressed on Ba/F3 cells (from (P14753 146-507, change not shown): as above

A cell proliferation of Clone G8 cultured with different constant amounts of HEL over a 5-day period (times the rate) of over 5 and a lowest HEL concentration giving accelerated cell growth of 5 ng/mL were found for “pair of chimeric receptor polypeptides: HyHEL-10 VH fused to mouse erythropoietin receptor (pME-VHER) and HyHEL-10 VL fused to mouse erythropoietin receptor (pME-VLER), expressed on Ba/F3 cells (from UniProt P14753 146-507; P14753 146-507)” in this work.

From patent US20030095962A1, “Chimeric cell-surface receptors that undergo antigen-induced association” (priority 1997, published 2003)
